Data from article PMC5153249.
Several values for one entry are separate records, joined by “and”; a condition that tells them apart may be missing. Identical values can stand only once.

How the values were obtained:
[1] = molecular target: 48S pre-initiation complex (40S, eIF1, eIF1A, ternary complex, AUG-containing model mRNA) (S. cerevisiae) (UniProt P32911); test: native gel or EMSA; gel shift monitoring [35S]-Met-tRNAi; 48S PICs with 1 µM uncapped AUG-containing model mRNA (1 µM eIF1, 1 µM eIF1A, 200 nM eIF2, 1 mM GDPNP•Mg2+, 2 nM Met-tRNAi, 20 nM 40S); eIF3 titrated 30-500 nM; 1X Recon buffer, 26 °C, 2 h; apparent KD, Hill equation; single experiments; apparent affinities ≤ 30 nM likely upper limits
[2] = molecular target: 43S pre-initiation complex (40S, eIF1, eIF1A, ternary complex; no mRNA) (S. cerevisiae) (UniProt P32911); test: native gel or EMSA; gel shift monitoring [35S]-Met-tRNAi; 43S PICs without mRNA (1 µM eIF1, 1 µM eIF1A, 200 nM eIF2, 1 mM GDPNP•Mg2+, 2 nM Met-tRNAi, 30 nM 40S); eIF3 titrated 30-500 nM; 1X Recon buffer (30 mM HEPES-KOH pH 7.4, 100 mM KOAc, 3 mM Mg(OAc)2, 2 mM DTT), 26 °C, 2 h; apparent KD, Hill equation; single experiments; apparent affinities ≤ 30 nM likely upper limits
[3] = test system: yeast 43S PIC: 40S+eIF1+eIF1A+eIF2 (Met-tRNAi TC); for mRNA recruitment also eIF5, eIF4A, eIF4B, eIF4E-eIF4G (Saccharomyces cerevisiae); test: EMSA; conditions: no eIF3, measurement 1, m7G cap, 30 mM HEPES-KOH pH 7.4, 100 mM KOAc, 3 mM Mg(OAc)2, 2 mM DTT, 1 mM GDPNP, 26 C, 2 h, native 4% THEM gel
[4] = test system: yeast 43S PIC: 40S+eIF1+eIF1A+eIF2 (Met-tRNAi TC); for mRNA recruitment also eIF5, eIF4A, eIF4B, eIF4E-eIF4G;eIF3 (a Box6) (Saccharomyces cerevisiae;Saccharomyces cerevisiae); test: EMSA; conditions: measurement 1; m7G cap; 30 mM HEPES-KOH pH 7.4, 100 mM KOAc, 3 mM Mg(OAc)2, 2 mM DTT, 1 mM GDPNP, 26 C, 2 h; native 4% THEM gel
[5] = test system: yeast 43S PIC: 40S+eIF1+eIF1A+eIF2 (Met-tRNAi TC); for mRNA recruitment also eIF5, eIF4A, eIF4B, eIF4E-eIF4G;eIF3 (a H725P) (Saccharomyces cerevisiae;Saccharomyces cerevisiae); test: EMSA; conditions: measurement 1; m7G cap; 30 mM HEPES-KOH pH 7.4, 100 mM KOAc, 3 mM Mg(OAc)2, 2 mM DTT, 1 mM GDPNP, 26 C, 2 h; native 4% THEM gel
[6] = test system: yeast 43S PIC: 40S+eIF1+eIF1A+eIF2 (Met-tRNAi TC); for mRNA recruitment also eIF5, eIF4A, eIF4B, eIF4E-eIF4G;eIF3 (a R731I) (Saccharomyces cerevisiae;Saccharomyces cerevisiae); test: EMSA; conditions: measurement 1; m7G cap; 30 mM HEPES-KOH pH 7.4, 100 mM KOAc, 3 mM Mg(OAc)2, 2 mM DTT, 1 mM GDPNP, 26 C, 2 h; native 4% THEM gel
[7] = test system: yeast 43S PIC: 40S+eIF1+eIF1A+eIF2 (Met-tRNAi TC); for mRNA recruitment also eIF5, eIF4A, eIF4B, eIF4E-eIF4G;eIF3 WT (a/b/c/i/g) (Saccharomyces cerevisiae;Saccharomyces cerevisiae); test: EMSA; conditions: measurement 1; m7G cap; 30 mM HEPES-KOH pH 7.4, 100 mM KOAc, 3 mM Mg(OAc)2, 2 mM DTT, 1 mM GDPNP, 26 C, 2 h; native 4% THEM gel
[8] = test system: yeast 43S PIC: 40S+eIF1+eIF1A+eIF2 (Met-tRNAi TC); for mRNA recruitment also eIF5, eIF4A, eIF4B, eIF4E-eIF4G;eIF3 a/b/c sub-complex (Saccharomyces cerevisiae;Saccharomyces cerevisiae); test: EMSA; conditions: 30 mM HEPES-KOH pH 7.4, 100 mM KOAc, 3 mM Mg(OAc)2, 2 mM DTT, 1 mM GDPNP, 26 C, 2 h, native 4% THEM gel; for binding signal: measurement 1, m7G cap
[9] = test system: yeast 43S PIC: 40S+eIF1+eIF1A+eIF2 (Met-tRNAi TC); for mRNA recruitment also eIF5, eIF4A, eIF4B, eIF4E-eIF4G;eIF3 (a Box37) (Saccharomyces cerevisiae;Saccharomyces cerevisiae); test: EMSA; conditions: measurement 1; m7G cap; 30 mM HEPES-KOH pH 7.4, 100 mM KOAc, 3 mM Mg(OAc)2, 2 mM DTT, 1 mM GDPNP, 26 C, 2 h; native 4% THEM gel
[10] = test system: yeast 43S PIC: 40S+eIF1+eIF1A+eIF2 (Met-tRNAi TC); for mRNA recruitment also eIF5, eIF4A, eIF4B, eIF4E-eIF4G;eIF3 (a delta8) (Saccharomyces cerevisiae;Saccharomyces cerevisiae); test: EMSA; conditions: measurement 1, m7G cap, 30 mM HEPES-KOH pH 7.4, 100 mM KOAc, 3 mM Mg(OAc)2, 2 mM DTT, 1 mM GDPNP, 26 C, 2 h, native 4% THEM gel
[11] = test system: yeast 43S PIC: 40S+eIF1+eIF1A+eIF2 (Met-tRNAi TC); for mRNA recruitment also eIF5, eIF4A, eIF4B, eIF4E-eIF4G;eIF3 (b prt1-1) (Saccharomyces cerevisiae;Saccharomyces cerevisiae); test: EMSA; conditions: 30 mM HEPES-KOH pH 7.4, 100 mM KOAc, 3 mM Mg(OAc)2, 2 mM DTT, 1 mM GDPNP, 26 C, 2 h, native 4% THEM gel; for binding signal: measurement 1, m7G cap
[12] = test system: yeast 43S PIC: 40S+eIF1+eIF1A+eIF2 (Met-tRNAi TC); for mRNA recruitment also eIF5, eIF4A, eIF4B, eIF4E-eIF4G;eIF3 (b rnp1) (Saccharomyces cerevisiae;Saccharomyces cerevisiae); test: EMSA; conditions: 30 mM HEPES-KOH pH 7.4, 100 mM KOAc, 3 mM Mg(OAc)2, 2 mM DTT, 1 mM GDPNP, 26 C, 2 h, native 4% THEM gel; for binding signal: measurement 1, m7G cap
[13] = test system: yeast 43S PIC: 40S+eIF1+eIF1A+eIF2 (Met-tRNAi TC); for mRNA recruitment also eIF5, eIF4A, eIF4B, eIF4E-eIF4G;eIF3 (c Box12-SPW) (Saccharomyces cerevisiae;Saccharomyces cerevisiae); test: EMSA; conditions: measurement 1; m7G cap; 30 mM HEPES-KOH pH 7.4, 100 mM KOAc, 3 mM Mg(OAc)2, 2 mM DTT, 1 mM GDPNP, 26 C, 2 h; native 4% THEM gel
[14] = test system: yeast 43S PIC: 40S+eIF1+eIF1A+eIF2 (Met-tRNAi TC); for mRNA recruitment also eIF5, eIF4A, eIF4B, eIF4E-eIF4G;eIF3 (c GAP85) (Saccharomyces cerevisiae;Saccharomyces cerevisiae); test: EMSA; conditions: measurement 1; m7G cap; 30 mM HEPES-KOH pH 7.4, 100 mM KOAc, 3 mM Mg(OAc)2, 2 mM DTT, 1 mM GDPNP, 26 C, 2 h; native 4% THEM gel
[15] = test system: yeast 43S PIC: 40S+eIF1+eIF1A+eIF2 (Met-tRNAi TC); for mRNA recruitment also eIF5, eIF4A, eIF4B, eIF4E-eIF4G;eIF3 (c delta60) (Saccharomyces cerevisiae;Saccharomyces cerevisiae); test: EMSA; conditions: measurement 1; m7G cap; 30 mM HEPES-KOH pH 7.4, 100 mM KOAc, 3 mM Mg(OAc)2, 2 mM DTT, 1 mM GDPNP, 26 C, 2 h; native 4% THEM gel
[16] = test system: yeast 43S PIC: 40S+eIF1+eIF1A+eIF2 (Met-tRNAi TC); for mRNA recruitment also eIF5, eIF4A, eIF4B, eIF4E-eIF4G;eIF3 (g KLF) (Saccharomyces cerevisiae;Saccharomyces cerevisiae); test: EMSA; conditions: measurement 1; m7G cap; 30 mM HEPES-KOH pH 7.4, 100 mM KOAc, 3 mM Mg(OAc)2, 2 mM DTT, 1 mM GDPNP, 26 C, 2 h; native 4% THEM gel
[17] = test system: yeast 43S PIC: 40S+eIF1+eIF1A+eIF2 (Met-tRNAi TC); for mRNA recruitment also eIF5, eIF4A, eIF4B, eIF4E-eIF4G;eIF3 (i Q258R) (Saccharomyces cerevisiae;Saccharomyces cerevisiae); test: EMSA; conditions: measurement 1; m7G cap; 30 mM HEPES-KOH pH 7.4, 100 mM KOAc, 3 mM Mg(OAc)2, 2 mM DTT, 1 mM GDPNP, 26 C, 2 h; native 4% THEM gel
[18] = no mRNA, ~3 fold weaker than WT, mean of 2, column assigned from text, Met-charged

| Substance | binding signal [4] | binding signal [5] | binding signal [6] | binding signal [7] | binding signal [8] | binding signal [9] | binding signal [11] | binding signal [12] | binding signal [13] | binding signal [14] | binding signal [15] | binding signal [16] | binding signal [17] | other results |
| --- | --- | --- | --- | --- | --- | --- | --- | --- | --- | --- | --- | --- | --- | --- |
| eIF3 variant ∆60 (eIF3c/Nip1 CTD) (from UniProt P38249 1-964; P06103 1-763; P32497 1-752; P40217 1-347; Q04067 1-274) (complex) |  |  |  |  |  |  |  |  |  |  |  |  |  | Kd [1]: 41 nM and 52 nM; Kd [2]: 27 nM and 21 nM |
| 5'11-AUG model mRNA | 97.8 % recruited | 94.6 % recruited | 91.8 % recruited | 97.9 % recruited | 66.7 % recruited |  |  |  |  |  |  |  |  | binding signal ([3]; columns as in Fig 5): 90.9 % recruited |
| 3'5-AUG model mRNA | 73.3 % recruited | 77.1 % recruited | 73.6 % recruited | 78.9 % recruited | 50.3 % recruited | 67.2 % recruited | 77.9 % recruited | 66.2 % recruited | 75.1 % recruited | 81 % recruited | 78.3 % recruited | 72.6 % recruited | 71 % recruited | binding signal ([3]; almost no recruitment): 1.04 % recruited; binding signal ([10]; text: no recruitment): 5.17 % recruited |
| mid-AUG model mRNA | 97.1 % recruited | 93.3 % recruited | 93.8 % recruited | 98.5 % recruited | 81.6 % recruited | 96.8 % recruited | 94.6 % recruited | 77.8 % recruited | 96.1 % recruited | 97.7 % recruited | 96.9 % recruited | 98.3 % recruited | 97.7 % recruited | binding signal [3]: 88.2 % recruited; binding signal [10]: 95.9 % recruited |
| initiator tRNAiMet |  |  |  |  |  |  |  |  |  |  |  |  |  | Kd [11, 18]: 42.3 nM; Kd ([12]; no mRNA, ~2 fold weaker than WT, mean of 2, column assigned from text, Met-charged): 28.1 nM; Kd [8, 18]: 47.8 nM |
